In the experiment the target is pyrene-labeled tropomyosin from bovine cardiac tissue (bovine) (UniProt Q5KR49). The experiment is described as follows: other fluorescence titration; troponin complex binding to 100 nM pyrene-tropomyosin, 23 °C, 20 mM Hepes pH 7.5, 100 mM KCl, 2 mM MgCl2, 1 mM DTT.

Usually Kd stands for the constant that tells how readily two partners part at equilibrium. A lower Kd goes with a tighter complex. In the case of “human adult cardiac troponin complex with R205Q troponin T (from UniProt P45379-6 1-288; P19429 1-210; P02585 1-160)”, the Kd amounted to 48 nM.

Substance “human adult cardiac troponin complex, wild type (troponin T, troponin I, troponin C) (from UniProt P45379-6 1-288; P19429 1-210; P02585 1-160)” came in with a Kd of 68 nM.

The values are drawn from article PMC4620603.
